Test results taken from paper PMC10053881 (Pharmaceutics, 2023).
Entries after “also recorded” stand apart in the source; their conditions may differ. Bridge positions count the residues as written; N and C are the ends. Square brackets hold non-standard residues; d marks the D form. Peptide text beside a SMILES is read from it. * marks the point of attachment. DOTA = O=C(O)CN1CCN(CC(=O)O)CCN(CC(=O)*)CCN(CC(=O)O)CC1; dPhe(4-NHCONH2) = NC(=O)Nc1ccc(C[C@@H](N)C(=O)O)cc1; Phe(4-Cl) = N[C@@H](Cc1ccc(Cl)cc1)C(=O)O

Columns and labels:
[1] = Biodistribution in SCID mice bearing twin HEK293-SST2R and wtHEK293 tumors; details: male, mouse, iv, 40 pmol, total radioactivity, Lu-177 radioligands, iv 40 pmol, mean ± sd, n = 4; for tissue uptake at 24 h: 24 h pi; for tissue uptake at 48 h: 48 h pi; for tissue uptake at 4 h: 4 h pi
Description: Freshly harvested HEK293-SST2R cells (1.2 × 10^7cells) and wtHEK293 cells (0.6 × 10^7 cells) were suspended in physiological saline (150 μL) and inoculated in the right and left flanks, respectively, of 43 male SCID mice (23.1 ± 1.6 g body weight, six weeks of age on arrival day; NCSR “Demokritos” Animal House, Athens, Greece). Mice were kept under aseptic conditions for 12–15 days and until palpable tumors (300–600 mg) were grown at the inoculation sites. […] Animals were euthanized at 4 and 24 h pi and immediately dissected. Blood samples, organs of interest and tumors were rapidly collected, weighed and counted in the gamma counter. […] Animals were euthanized at 4, 24 and 48 h pi and the procedure described above was followed. Biodistribution data were calculated with the aid of suitable standards of the administered dose as percent of the injected activity per gram tissue (%IA/g) with excel software (Microsoft Corporation, Redmond, Washington, […], USA). Results were provided as average ± sd values, n = 4 per time point, via the PRISM^TM 6.0 GraphPad software (San Diego, CA, USA). Statistical analysis was performed as previously described.

[2] = tested on: gastric NET with lymph node and hepatic metastases; experiment: PET/CT imaging in a NET patient; assay type: in vivo, human; details: [68Ga]Ga-DOTA-NOC 1 h pi, [68Ga]Ga-DATA5m-LM4 10 min–3 h pi
Text: After a preceding PET/CT imaging with [^68Ga]Ga-DOTA-NOC ([^68Ga]Ga-DOTA-[1-Nal^3]octreotide), the patient underwent first PET/CT with [^68Ga]Ga-DATA^5m-LM4 on a dedicated GE Discovery 710 × 128 Slice PET/CT Scanner (GE HealthCare Technologies Inc.,/GE Healthcare, Chicago, IL, USA), with a 40 mm detector at a 0.35 s rotation speed and a 128-slice CT scanner. The images were corrected for random and scatter counts, decay correction and dead time correction. PET images were reconstructed with iterative reconstruction using ordered subset expectation maximization algorithm (OSEM) (2 iterations, 24 subsets). They were processed and analyzed with a dedicated commercially available workstation (GE Xeleris). Further details on the patient preparation, scan and data acquisition protocol are included in the Supplementary Materials.
Radiosynthesis of [68Ga]Ga-DATA5m-LM4 and [177Lu]Lu-AAZTA5-LM4 for Patient […]
For radiolabeling of DATA5m-LM4 with Ga-68, [68Ga]GaCl3 (200 MBq) obtained from a commercial [68Ge]Ge/[68Ga]Ga-generator (ITM Isotope Technologies Munich SE, Garching, Germany) was added in a vial containing a solution of DATA5m-LM4 (50 µg, 32.5 nmol) in 500 µL of 1 M sodium acetate buffer pH 4.5. The reaction mixture was heated for 15 min at 95 °C, affording [68Ga]Ga-DATA5m-LM4 in a radiochemical purity […]

[3] = in vivo, Tu+ (HEK293-SST2R tumor) uptake
[4] = in vivo, Tu- (wtHEK293 tumor) uptake

C[C@@H](O)[C@@H]1NC(=O)[C@H](CCCCN)NC(=O)[C@@H](Cc2ccc(NC(N)=O)cc2)NC(=O)[C@H](Cc2ccc(O)cc2)NC(=O)[C@H](NC(=O)[C@H](Cc2ccc(Cl)cc2)NC(=O)CN2CCN(CC(=O)O)CCN(CC(=O)O)CCN(CC(=O)O)CC2)CSSC[C@@H](C(=O)N[C@H](Cc2ccc(O)cc2)C(N)=O)NC1=O [[^177Lu]Lu-DOTA-LM3, metal not drawn] ({DOTA}-[Phe(4-Cl)][dC]Y[dPhe(4-NHCONH2)]KTC[dY]-NH2; disulfide 2-7)
tissue uptake at 24 h ([1]; blood, Blood uptake): 0.07 %ID/g | tissue uptake at 48 h ([1]; blood, Blood uptake): 0.06 ± 0.01 %ID/g | tissue uptake at 4 h ([1]; femur, Femur uptake): 1.56 ± 0.24 %ID/g | tissue uptake at 24 h ([1]; femur, Femur uptake): 1.38 ± 0.18 %ID/g | tissue uptake at 48 h ([1]; femur, Femur uptake): 0.88 ± 0.05 %ID/g | tissue uptake at 48 h ([1]; heart, Heart uptake): 0.13 ± 0.02 %ID/g | tissue uptake at 4 h [1, 3]: 45.5 ± 1.66 %ID/g | tissue uptake at 24 h [1, 3]: 37.6 ± 3.42 %ID/g | tissue uptake at 48 h [1, 3]: 18.8 ± 0.88 %ID/g | tissue uptake at 4 h [1, 4]: 1.66 ± 0.14 %ID/g | tissue uptake at 24 h [1, 4]: 1.53 ± 0.15 %ID/g | tissue uptake at 48 h [1, 4]: 0.75 ± 0.08 %ID/g | tissue uptake at 4 h ([1]; intestines, Intestines uptake): 2.71 ± 0.18 %ID/g | tissue uptake at 24 h ([1]; intestines, Intestines uptake): 1.52 ± 0.21 %ID/g | tissue uptake at 48 h ([1]; intestines, Intestines uptake): 0.78 ± 0.09 %ID/g | tissue uptake at 4 h ([1]; kidneys, Kidneys uptake): 11.5 ± 0.26 %ID/g | tissue uptake at 24 h ([1]; kidneys, Kidneys uptake): 5.14 ± 0.92 %ID/g | tissue uptake at 48 h ([1]; kidneys, Kidneys uptake): 2.47 ± 0.67 %ID/g | tissue uptake at 4 h ([1]; liver, Liver uptake): 6.79 ± 0.84 %ID/g | tissue uptake at 24 h ([1]; liver, Liver uptake): 3.38 ± 0.89 %ID/g | tissue uptake at 48 h ([1]; liver, Liver uptake): 1.47 ± 0.05 %ID/g | tissue uptake at 4 h ([1]; lungs, Lungs uptake): 15.7 ± 1.2 %ID/g | tissue uptake at 24 h ([1]; lungs, Lungs uptake): 8.88 ± 0.26 %ID/g | tissue uptake at 48 h ([1]; lungs, Lungs uptake): 5.11 ± 0.63 %ID/g | tissue uptake at 4 h ([1]; muscle, Muscle uptake): 0.07 ± 0.01 %ID/g | tissue uptake at 24 h ([1]; muscle, Muscle uptake): 0.05 ± 0.01 %ID/g | tissue uptake at 48 h ([1]; muscle, Muscle uptake): 0.05 %ID/g | tissue uptake at 4 h ([1]; pancreas, Pancreas uptake): 46.6 ± 2.2 %ID/g | tissue uptake at 24 h ([1]; pancreas, Pancreas uptake): 23 ± 4.32 %ID/g | tissue uptake at 48 h ([1]; pancreas, Pancreas uptake): 7.85 ± 0.94 %ID/g | tissue uptake at 4 h ([1]; spleen, Spleen uptake): 0.81 ± 0.06 %ID/g | tissue uptake at 24 h ([1]; spleen, Spleen uptake): 0.56 ± 0.07 %ID/g | tissue uptake at 48 h ([1]; spleen, Spleen uptake): 0.4 ± 0.03 %ID/g | tissue uptake at 4 h ([1]; stomach, Stomach uptake): 14.6 ± 1.85 %ID/g | tissue uptake at 24 h ([1]; stomach, Stomach uptake): 8.03 ± 1.43 %ID/g | tissue uptake at 48 h ([1]; stomach, Stomach uptake): 3.27 ± 0.34 %ID/g

[^68Ga]Ga-DOTA-[1-Nal^3]octreotide [[^68Ga]Ga-DOTA-NOC]
uptake in liver metastases on PET/CT [2]: mild to negligible uptake; also recorded: weak uptake
